For one data set, the target named is NPR‐C. As to conditions: literature value in Table 2; read-out: K i, literature; cited from earlier work. From the text:
Table 2 Summary of control peptide FP analyses | column: K i (competitive; nM)

The target of data set [1] is T1, Human full‐length (FL) NPR‐C (27–541)‐10His‐Flag (Homo sapiens, UniProt P17342).
T1 construct: Human full‐length (FL) NPR‐C (27–541)‐10His‐Flag; 10His (C); Flag (C); purchased Peak Proteins, UK
T1 sequence (P17342 27-541): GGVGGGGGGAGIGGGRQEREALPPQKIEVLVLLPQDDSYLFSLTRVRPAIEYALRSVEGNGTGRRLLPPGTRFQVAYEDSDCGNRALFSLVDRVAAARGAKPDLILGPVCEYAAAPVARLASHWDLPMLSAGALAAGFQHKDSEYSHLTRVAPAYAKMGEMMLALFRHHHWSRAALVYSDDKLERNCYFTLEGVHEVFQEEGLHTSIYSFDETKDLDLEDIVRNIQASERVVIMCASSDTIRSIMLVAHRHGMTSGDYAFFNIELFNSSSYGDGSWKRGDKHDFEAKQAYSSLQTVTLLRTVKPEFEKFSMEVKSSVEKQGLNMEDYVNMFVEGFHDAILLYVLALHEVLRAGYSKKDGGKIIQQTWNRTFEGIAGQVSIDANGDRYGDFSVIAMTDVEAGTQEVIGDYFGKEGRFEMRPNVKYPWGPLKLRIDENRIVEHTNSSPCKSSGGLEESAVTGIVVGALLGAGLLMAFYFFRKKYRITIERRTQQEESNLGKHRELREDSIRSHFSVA
The data set is described as follows: Surface plasmon resonance, immobilized full‐length NPR‐C. As to conditions: SPR, experimentally observed R max as percentage of theoretical R max (quality control), each table line a separate run. Format: binding.

The target of data set [2] is T2, extracellular domain (ECD) NPR‐C (27–481)‐6His (Homo sapiens, UniProt P17342).
T2 construct: extracellular domain (ECD) NPR‐C (27–481)‐6His; 6His (C); purchased Peak Proteins, UK
T2 sequence (P17342 27-481): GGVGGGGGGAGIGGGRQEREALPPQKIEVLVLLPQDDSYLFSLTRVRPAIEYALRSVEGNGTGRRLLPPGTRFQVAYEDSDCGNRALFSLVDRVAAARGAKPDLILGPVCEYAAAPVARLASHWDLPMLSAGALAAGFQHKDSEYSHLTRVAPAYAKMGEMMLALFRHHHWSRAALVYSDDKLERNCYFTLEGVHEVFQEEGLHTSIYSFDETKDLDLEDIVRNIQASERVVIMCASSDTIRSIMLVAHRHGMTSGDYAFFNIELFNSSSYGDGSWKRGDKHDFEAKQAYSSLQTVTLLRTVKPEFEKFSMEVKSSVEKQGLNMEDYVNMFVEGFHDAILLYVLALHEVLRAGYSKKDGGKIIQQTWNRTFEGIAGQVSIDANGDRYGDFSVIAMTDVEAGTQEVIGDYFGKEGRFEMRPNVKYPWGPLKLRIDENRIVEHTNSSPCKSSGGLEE
Nature of the data set: Surface plasmon resonance, immobilized extracellular domain NPR‐C. To be noted: SPR, experimentally observed R max as percentage of theoretical R max (quality control), each table line a separate run. Format: binding.

The next data set concerns the target T3, FL NPR‐C (Homo sapiens, UniProt P17342).
T3 construct: Human full‐length (FL) NPR‐C (27–541)‐10His‐Flag; 10His (C); Flag (C); purchased Peak Proteins, UK
T3 sequence (P17342 27-541): T1 sequence (P17342 27-541)
The data set is described as follows: Thermal shift assay (Protein Thermal Shift Dye Kit). Format: binding. To be noted: for ΔTm: FL NPR‐C 0.1 mg/ml, 1× dye, ramp 25–99°C, T m mean across four replicates. As to the method:
Thermal shift assays were performed using Thermo Fisher Scientific Protein Thermal Shift™ Dye Kit, and samples were prepared according to the accompanying protocol.17 A solution of Protein Thermal Shift™ Dye was always prepared fresh from the 1,000× stock. Optimization experiments were performed by titrating NPR‐C protein (0.1, 0.05 and 0.01 mg/ml) and Protein Thermal Shift™ Dye concentration (80, 8 and 1×) to identify conditions that achieved melt curves with the greatest dynamic fluorescence range and least standard error in T m (melt temperature) values. […] The total volume for each reaction was 20.0 μl. Each melt reaction was mixed at least 10 times, and the plate was sealed with MicroAmp® Optical Adhesive Film. The plate was then spun it at 112 g for 1 min and placed on ice until measurement. Thermal melt reactions were performed and analysed using a 7500 Real‐Time PCR System®. A 5‐carboxy‐X‐rhodamine (ROX) reporter and a continuous temperature ramp of 25–99°C were used (2 min per step). Optical filters were set at 580 nm (excitation) and 623 nm (emission). The T m for each sample was obtained by differentiating the original fluorescence melt curve using OriginPro mathematical and peak identification functions. The reported T m values are the mean across four replicates.

Data set [3] has as its target T4, Human full-length (FL) NPR-C (27–541)-10His-Flag (human, UniProt P17342-2 27-540).
T4 construct: natriuretic peptide receptor C (NPR-C), human, residues 27-541; Primarily a disulphide-bonded dimer (~130 kDa) on non-reducing SDS-PAGE; The tag's end is read from the construct's name (27–541)-10His-Flag; also called natriuretic peptide receptor C; natriuretic peptide receptor type-C; source: expressed and isolated at Peak Proteins, UK; not shown: 10His, C-terminal, kept; Flag, C-terminal, kept
T4 sequence (looked up): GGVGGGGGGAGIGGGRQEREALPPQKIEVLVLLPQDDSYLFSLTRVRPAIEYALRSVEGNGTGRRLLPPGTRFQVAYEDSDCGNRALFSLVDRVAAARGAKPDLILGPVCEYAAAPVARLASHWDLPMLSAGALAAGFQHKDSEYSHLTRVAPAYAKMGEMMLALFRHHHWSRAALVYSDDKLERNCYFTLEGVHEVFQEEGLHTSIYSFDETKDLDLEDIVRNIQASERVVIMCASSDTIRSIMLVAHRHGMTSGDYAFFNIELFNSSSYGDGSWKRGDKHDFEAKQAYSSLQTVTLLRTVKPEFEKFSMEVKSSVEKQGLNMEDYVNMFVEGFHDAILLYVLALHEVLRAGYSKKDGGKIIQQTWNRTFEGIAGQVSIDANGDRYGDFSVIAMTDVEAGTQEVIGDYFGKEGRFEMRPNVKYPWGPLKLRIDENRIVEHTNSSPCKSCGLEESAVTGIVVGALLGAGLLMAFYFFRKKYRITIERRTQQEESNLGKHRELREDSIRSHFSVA
The data set is described as follows: fluorescence polarisation; competition against 15 nM Flu-P19 probe; FL NPR-C 150 nM or ECD NPR-C 400 nM; competitor 4.89 nM-2.5 uM; HEPES buffer, 3% DMSO; Ki computed from IC50 with a web-based converter. To be noted: both partners purified.

In data set [4] the target is T5, extracellular domain (ECD) NPR-C (27–481)-6His (human, UniProt P17342-2 27-481).
T5 construct: natriuretic peptide receptor C (NPR-C), human, extracellular domain, residues 27-481; Mainly monomer (~55 kDa) on non-reducing SDS-PAGE; the discussion says ~25% of the molecules are disulphide-bonded; The tag's end is read from the construct's name; also called (27–481)-6His (ECD); extracellular NPR-C; source: expressed and isolated at Peak Proteins, UK; not shown: 6His, C-terminal, kept
T5 sequence (looked up): T2 sequence (P17342 27-481) with S450C, G452L, L453E, E455S
The description is as above. To be noted: both partners purified.

The target of data set [5] is T4, Human full-length (FL) NPR-C …. The data set is described as above. To be noted: both partners purified. The source holds these as a separate data set.
Data set [6] has the same target. Nature of the data set: thermal shift; Protein Thermal Shift Dye Kit; FL NPR-C 0.1 mg/ml, 1x dye; ligand at 1:1 or 10:1 ratio to the protein; ramp 25-99°C; Tm mean of four replicates. To be noted: both partners purified.
The target is the same in data set [7]. The data set is described as follows: SPR; steady-state affinity analysis of Flu-P19 on immobilised FL NPR-C. As to conditions: both partners purified.

Positions count from the first letter of the chain named. Values joined by “and” are separate entries in the source; they are usually repeats but may differ in a detail not shown here. Identical values can stand only once. Bridge positions count the residues as written; N and C are the ends. Ends that are not written are not given here. * marks the point of attachment. 5FAM = O=C1OC2(c3ccc(O)cc3Oc3cc(O)ccc32)c2ccc(C(=O)*)cc21

As for C‐type natriuretic peptide [CNP], the Ki on NPR‐C is 0.023 nM. Besides, the “% theoretical R max” value in [1] was 31%; in data set [2] it was 51%. Further, at FL NPR‐C (FL NPR‐C, ratio not stated in the sentence (Figure 9c,d)), the “ΔTm, approximate shift given in text” value was ~ 11 °C. The shift in melting temperature (ΔTm) (usually the change in melting temperature against a reference sample) is “+8.2 °C” on FL NPR‐C (NPRC + ligand (1:1)) and “+11.7 °C” at FL NPR‐C (NPRC + ligand (1:10)).

GLSKGCFGLKLDRIGSMSGLGC (ligand, disulfide 6-22 (inferred)) [C-type natriuretic peptide]: the IC50 (commonly the concentration that gives 50% inhibition) in [3] is 142 nM; in [5] it was 68.4 nM and 142 nM and 111 nM. Moreover, the Ki was 0.49 nM in data set [3], 0.1 nM in data set [4] and 0.1 nM in [5]. In addition, the ΔTm in data set [6] is ~11 °C.

B1: 5-carboxyfluorescein N-terminus labelled GLSKG[CFGRSLDRIGSLSGLGC]NS (Flu-P19) (peptide)
peptide: 5FAM-GLSKGCFGRSLDRIGSLSGLGCNS
modifications: not fully specified (bridges); cysteine pairing not given here
notes: P19, a peptide identified by phage display (Deschênes et al., cited); also called Flu-P19 probe; source: synthetic peptide, bought: Peptide Protein Research Ltd, UK
As to B1, the Kd (usually the free concentration of one partner at which half of the binding sites on the other are occupied at equilibrium, for simple one-to-one binding) in data set [7] is ~10 nM.

(Values after publication PMC6879014, “Biophysical screening methods for extracellular domain peptide receptors, application to natriuretic peptide receptor C ligands” (Chemical Biology & Drug Design, 2018).)
